In patent US20220218752A1 (University of Washington, published 2022) one finds Kd data, which are given here for two molecules.

The target in experiment [1] is T1, Her2-eGFP (hsHER2_ecd_tm-eGFP) (human (printed as hs)).
T1 construct: Her2 ectodomain and transmembrane region fused to eGFP, expressed on K562 cells by lentiviral transduction; also called K562/Her2
Put plainly: flow cytometry on mixed K562 cells expressing Her2-eGFP, EGFR-iRFP, both or neither; DARPin pre-complexed with Bcl2-AF594, 3-fold dilutions from 300 nM to 0.4 nM. The procedure: (§1) FIG. 21. DARPin binder affinity measured by flow cytometry. Anti-Her2 or anti-EGFR DARPins with N-terminal fusions to Bim were pre-complexed with Bcl2-AF594 and serially diluted 3-fold from 300 nM down to 0.4 nM. This dilution series was used to label a mixed population of K562 cells expressing Her2-eGFP, EGFR-iRFP, both, or neither for one hour at room temperature in a 50 μl incubation volume. The cells were then washed in PBS supplemented with 0.1% bovine serum albumin and analyzed on an LSRII flow cytometer.
(In general: In flow cytometry, cells or beads pass a laser one at a time.)

In experiment [2] the target is T2, EGFR-iRFP (hsEGFR_ecd_tm-iRFP) (human (printed as hs)).
T2 construct: EGFR ectodomain and transmembrane region fused to iRFP, expressed on K562 cells by lentiviral transduction; also called K562/EGFR
T2 sequence (chain, as listed by the source limits assumed): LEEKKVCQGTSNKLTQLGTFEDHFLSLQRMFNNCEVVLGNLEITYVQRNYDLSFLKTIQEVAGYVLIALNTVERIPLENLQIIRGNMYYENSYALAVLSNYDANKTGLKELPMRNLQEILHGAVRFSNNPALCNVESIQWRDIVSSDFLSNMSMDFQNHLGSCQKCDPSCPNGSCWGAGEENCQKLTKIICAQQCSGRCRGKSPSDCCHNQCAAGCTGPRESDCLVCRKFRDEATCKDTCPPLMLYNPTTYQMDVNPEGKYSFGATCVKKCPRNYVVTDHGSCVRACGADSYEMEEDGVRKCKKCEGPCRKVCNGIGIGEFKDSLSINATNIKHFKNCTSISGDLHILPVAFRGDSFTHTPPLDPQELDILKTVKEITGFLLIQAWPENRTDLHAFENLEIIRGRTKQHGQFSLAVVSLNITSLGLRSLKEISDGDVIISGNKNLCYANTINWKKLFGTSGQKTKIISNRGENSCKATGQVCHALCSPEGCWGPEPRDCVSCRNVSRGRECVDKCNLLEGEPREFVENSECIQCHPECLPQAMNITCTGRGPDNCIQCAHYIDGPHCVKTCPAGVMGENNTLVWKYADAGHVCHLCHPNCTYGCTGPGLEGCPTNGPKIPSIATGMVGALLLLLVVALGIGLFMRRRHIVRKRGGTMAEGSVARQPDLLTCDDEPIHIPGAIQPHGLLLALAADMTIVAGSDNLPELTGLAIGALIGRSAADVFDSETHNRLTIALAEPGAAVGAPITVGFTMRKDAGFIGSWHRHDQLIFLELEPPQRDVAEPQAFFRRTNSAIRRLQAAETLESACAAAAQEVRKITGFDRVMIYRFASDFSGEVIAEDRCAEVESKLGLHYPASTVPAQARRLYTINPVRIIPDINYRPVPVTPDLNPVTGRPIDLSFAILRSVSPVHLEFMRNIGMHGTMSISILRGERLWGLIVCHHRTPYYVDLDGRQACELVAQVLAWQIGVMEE
Described as above. The procedure: as §1

In general, Kd refers to the free concentration of one partner at which half of the binding sites on the other are occupied at equilibrium, for simple one-to-one binding. Lower therefore signals higher affinity.

B1: Bim_Her2 (Her2 DARPin tagged with N-terminal Bim peptide) (designed binder)
chain: MGSHHHHHHGSGSENLYFQGSTDEIWIAQELRRIGDEFNAYYASGSGDLGKKLLEAARAGQDDEVRILMANGADVNAKDEYGLTPLYLATAHGHLEIVEVLLKNGADVNAVDAIGFTPLHLAAFIGHLEIAEVLLKHGADVNAQDKFGKTAFDISIGNGNEDLAEILQKLN
notes: also called anti-Her2 DARPin with N-terminal fusion to Bim; Bim-DARPin
In experiment [1], B1 had a Kd of roughly 10 nM.

B2: Bim_EGFR (EGFR DARPin tagged with N-terminal Bim peptide) (designed binder)
chain: MGSHHHHHHGSGSENLYFQGSTDEIWIAQELRRIGDEFNAYYASGSGDLGKKLLEAARAGQDDEVRILMANGADVNADDTWGWTPLHLAAYQGHLEIVEVLLKNGADVNAYDYIGWTPLHLAADGHLEIVEVLLKNGADVNASDYIGDTPLHLAAHNGHLEIVEVLLKHGADVNAQDKFGKTAFDISIDNGNEDLAEILQKLN
notes: also called anti-EGFR DARPin with N-terminal fusion to Bim; Bim-DARPin
The molecule B2 came in with a Kd in experiment [2] of roughly 10 nM.
